Results taken from patent US20100247562A1.

Key:
[1] = target: human MUC1 (human) (UniProt P15941); assay: co-immunoprecipitation with anti-HSP70, anti-MUC1 immunoblot, densitometry; lane 4 (taken to be MC38/MUC1 tumor cells)
[2] = target: human MUC1 (human) (UniProt P15941); assay: co-immunoprecipitation with anti-HSP70, anti-MUC1 immunoblot, densitometry; lane 6 (taken to be FC/MUC1 fusion cells)

UniProt P15941, sequence (P15941 24-1255 limits assumed): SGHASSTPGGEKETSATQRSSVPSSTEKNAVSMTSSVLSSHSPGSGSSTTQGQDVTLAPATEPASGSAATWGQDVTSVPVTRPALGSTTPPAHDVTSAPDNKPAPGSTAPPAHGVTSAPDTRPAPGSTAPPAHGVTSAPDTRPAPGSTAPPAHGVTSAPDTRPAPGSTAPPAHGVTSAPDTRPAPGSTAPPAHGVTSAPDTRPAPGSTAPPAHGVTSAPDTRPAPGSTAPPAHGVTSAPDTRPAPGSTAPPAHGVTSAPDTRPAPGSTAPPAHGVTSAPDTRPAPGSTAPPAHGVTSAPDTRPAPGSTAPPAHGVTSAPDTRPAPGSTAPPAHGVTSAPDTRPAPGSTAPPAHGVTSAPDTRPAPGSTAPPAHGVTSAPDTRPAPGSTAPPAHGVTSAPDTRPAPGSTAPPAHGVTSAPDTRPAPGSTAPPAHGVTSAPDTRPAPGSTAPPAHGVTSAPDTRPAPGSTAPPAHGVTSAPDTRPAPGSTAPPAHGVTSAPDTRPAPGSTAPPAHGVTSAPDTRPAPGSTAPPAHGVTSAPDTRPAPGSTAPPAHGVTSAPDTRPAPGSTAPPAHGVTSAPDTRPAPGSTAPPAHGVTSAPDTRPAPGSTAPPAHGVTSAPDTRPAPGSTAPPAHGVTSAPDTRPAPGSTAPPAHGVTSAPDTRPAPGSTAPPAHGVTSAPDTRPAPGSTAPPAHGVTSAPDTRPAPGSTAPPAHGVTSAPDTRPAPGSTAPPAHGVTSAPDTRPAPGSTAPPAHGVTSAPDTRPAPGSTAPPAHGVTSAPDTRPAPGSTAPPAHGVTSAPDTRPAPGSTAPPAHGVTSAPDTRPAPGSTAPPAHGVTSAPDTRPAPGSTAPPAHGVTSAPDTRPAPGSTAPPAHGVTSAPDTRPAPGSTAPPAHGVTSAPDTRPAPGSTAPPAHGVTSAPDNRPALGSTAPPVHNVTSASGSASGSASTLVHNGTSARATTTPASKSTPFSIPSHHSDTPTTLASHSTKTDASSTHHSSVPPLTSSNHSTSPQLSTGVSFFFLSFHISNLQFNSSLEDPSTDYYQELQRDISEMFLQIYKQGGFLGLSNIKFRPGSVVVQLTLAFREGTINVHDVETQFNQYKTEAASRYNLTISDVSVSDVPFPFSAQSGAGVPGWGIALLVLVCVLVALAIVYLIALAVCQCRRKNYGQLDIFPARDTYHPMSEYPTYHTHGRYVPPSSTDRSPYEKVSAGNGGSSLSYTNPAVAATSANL
HSP70 (endogenous, immunoprecipitated with anti-HSP70 antibody Ab46 or purified by ADP-agarose from MC38/MUC1 tumor cells or FC/MUC1 DC-tumor fusion cells), sequence (Q61696 2-641): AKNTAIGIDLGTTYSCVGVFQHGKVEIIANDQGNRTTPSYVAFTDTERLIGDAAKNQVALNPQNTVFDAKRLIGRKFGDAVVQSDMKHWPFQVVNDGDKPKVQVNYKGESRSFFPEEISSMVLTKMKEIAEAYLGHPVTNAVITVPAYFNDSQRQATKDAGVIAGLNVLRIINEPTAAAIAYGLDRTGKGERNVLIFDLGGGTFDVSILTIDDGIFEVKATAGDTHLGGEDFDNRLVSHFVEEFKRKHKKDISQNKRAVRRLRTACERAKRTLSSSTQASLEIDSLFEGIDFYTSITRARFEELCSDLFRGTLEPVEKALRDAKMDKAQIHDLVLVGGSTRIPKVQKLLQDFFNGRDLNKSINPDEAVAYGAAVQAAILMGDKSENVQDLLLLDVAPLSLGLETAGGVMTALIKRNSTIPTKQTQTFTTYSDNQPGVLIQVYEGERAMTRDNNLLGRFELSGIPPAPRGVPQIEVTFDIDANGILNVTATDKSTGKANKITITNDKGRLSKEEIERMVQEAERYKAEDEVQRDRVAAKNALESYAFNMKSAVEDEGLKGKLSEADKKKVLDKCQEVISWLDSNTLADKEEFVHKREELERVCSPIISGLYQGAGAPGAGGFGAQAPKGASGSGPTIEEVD

HSP70 (endogenous, immunoprecipitated with anti-HSP70 antibody Ab46 or purified by ADP-agarose from MC38/MUC1 tumor cells or FC/MUC1 DC-tumor fusion cells)
relative density of MUC1 (lane 4) [1]: 10.7%
relative density of MUC1 (lane 6) [2]: 41.5%
